Measured values published in patent US20260109782A1 (Chugai, published 2026).

Assays:
Assay in all cases: cell-based or functional assay
[1] = molecular target: coagulation factor IX / activated coagulation factor IX (human), P00740
[2] = molecular target: human Factor X (Enzyme Research Laboratories, Inc.) (human, UniProt P00742 41-488)
[3] = molecular target: coagulation factor IX / activated coagulation factor IX (human) (UniProt P00740)
Sequence of coagulation factor IX / activated coagulation factor IX (human) (P00740 47-461): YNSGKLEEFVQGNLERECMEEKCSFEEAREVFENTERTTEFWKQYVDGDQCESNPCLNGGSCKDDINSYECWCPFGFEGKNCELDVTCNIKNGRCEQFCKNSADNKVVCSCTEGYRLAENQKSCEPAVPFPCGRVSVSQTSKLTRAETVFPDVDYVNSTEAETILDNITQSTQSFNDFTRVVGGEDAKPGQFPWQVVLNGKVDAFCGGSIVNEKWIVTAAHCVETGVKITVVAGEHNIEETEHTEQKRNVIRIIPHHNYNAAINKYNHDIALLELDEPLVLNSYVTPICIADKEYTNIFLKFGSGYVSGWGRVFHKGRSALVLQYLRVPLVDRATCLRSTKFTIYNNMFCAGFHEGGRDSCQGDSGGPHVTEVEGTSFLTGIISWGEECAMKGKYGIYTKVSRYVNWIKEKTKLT

Sequence of human Factor X (Enzyme Research Laboratories, Inc.) (P00742 other isoform, or with tags, fused parts or gaps limits assumed): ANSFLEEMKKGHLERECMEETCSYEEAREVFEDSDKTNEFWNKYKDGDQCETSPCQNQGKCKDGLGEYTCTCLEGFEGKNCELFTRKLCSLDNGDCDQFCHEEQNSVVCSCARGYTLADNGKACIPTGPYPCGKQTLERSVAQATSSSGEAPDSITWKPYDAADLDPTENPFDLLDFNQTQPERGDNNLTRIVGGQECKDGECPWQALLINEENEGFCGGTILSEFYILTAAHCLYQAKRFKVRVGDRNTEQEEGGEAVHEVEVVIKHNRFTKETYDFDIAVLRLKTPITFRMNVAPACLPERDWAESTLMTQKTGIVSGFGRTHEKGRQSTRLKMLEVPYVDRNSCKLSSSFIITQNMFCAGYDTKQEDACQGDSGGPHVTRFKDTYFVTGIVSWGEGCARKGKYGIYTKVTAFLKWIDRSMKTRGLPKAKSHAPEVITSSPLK
Sequence of coagulation factor IX / activated coagulation factor IX (human), P00740 (P00740 47-461): as the sequence (P00740 47-461) above

Row | reduction of coagulation time against no antibody [1] | reduction of coagulation time against no antibody [2] | reduction of coagulation time against no antibody [3] | Binder
1 | > 70 s | – | – | commonly shared L chain antibody of A44 H chain, B26 H chain and hybrid L chain BBA(G) (bispecific antibody, V domains shown) VH 1: MQVQLQQSGAELAKPGASVKLSCKASGYTFTSSWMHWIKQRPGQGLEWLGYINPSSGYTKYNRKFRDKATLTADKSSSTAYMQLTSLTYEDSAVYYCARGGNGYYFDYWGQGTTLTVSS VH 2: MQVQLQQSGPELVKPGASVKISCKASGYTFTDNNMDWVKQSHGKGLEWIGDINTKSGGSIYNQKFKGKATLTIDKSSSTAYMELRSLTSEDTAVYYCARRRSYGYYFDYWGQGTTLTVSS VL: DIVMTQSHKFMSTSVGDRVSITCKASQNVGTAVAWYQQKPGQSPKLLIYSASYRYSGVPDRFTGSRYGTDFTLTISNVQSEDLADYLCQQYSNYITFGGGTKLELKRG
2 | > 60 s | ≥ 60 s | – | commonly shared L chain antibody of A44 H chain, B26 H chain and hybrid L chain ABA(G) (bispecific antibody, V domains shown) VH 1: MQVQLQQSGAELAKPGASVKLSCKASGYTFTSSWMHWIKQRPGQGLEWLGYINPSSGYTKYNRKFRDKATLTADKSSSTAYMQLTSLTYEDSAVYYCARGGNGYYFDYWGQGTTLTVSS VH 2: MQVQLQQSGPELVKPGASVKISCKASGYTFTDNNMDWVKQSHGKGLEWIGDINTKSGGSIYNQKFKGKATLTIDKSSSTAYMELRSLTSEDTAVYYCARRRSYGYYFDYWGQGTTLTVSS VL: DIVMTQSHKFMSTSVGDRVSITCKASQDVGTAVAWYQQKPGQSPKLLIYSASYRYSGVPDRFTGSRYGTDFTLTISNVQSEDLADYLCQQYSNYITFGGGTKLELKRG

The next lines start with the binder.

Row | Binder | reduction of coagulation time against no antibody [1] | reduction of coagulation time against no antibody [2] | reduction of coagulation time against no antibody [3]
3 | bispecific antibody of A69H, B26H and hybrid L chain BBa (bispecific antibody, V domains shown) VH 1: MEVQLQQSGAELVKPGASVKLSCTASGFNIKDYYMHWIKQRPGQGLEWLGYINPSSGYTKYNRKFRDKATLTADKSSSTAYMQLTSLTYEDSAVYYCARGGNGYYLDYWGQGTTLTVSS VH 2: MQVQLQQSGPELVKPGASVKISCKASGYTFTDNNMDWVKQSHGKGLEWIGDINTKSGGSIYNQKFKGKATLTIDKSSSTAYMELRSLTSEDTAVYYCARRRSYGYYFDYWGQGTTLTVSS VL: DIVMTQSHKFMSTSIGDRVSITCKASQNVGTAVAWYQQKPGQSPKLLIYSASYRYSGVPDRFTGSRYGTDFTLTISNVQSEDLADYLCQQYSSYLTFGGGTKLELKR | > 80 s | ≥ 80 s | –
4 | A44/B26 (bispecific antibody, V domains shown) VH 1: MQVQLQQSGAELAKPGASVKLSCKASGYTFTSSWMHWIKQRPGQGLEWLGYINPSSGYTKYNRKFRDKATLTADKSSSTAYMQLTSLTYEDSAVYYCARGGNGYYFDYWGQGTTLTVSS VL 1: DIVMTQSHKFMSTSVGDRVSITCKASQDVGTAVAWYQQKPGQSPKLLIYWASTRHTGVPDRFTGSRYGTDFTLTISNVQSEDLADYLCQQYSNYITFGGGTKLELKR VH 2: MQVQLQQSGPELVKPGASVKISCKASGYTFTDNNMDWVKQSHGKGLEWIGDINTKSGGSIYNQKFKGKATLTIDKSSSTAYMELRSLTSEDTAVYYCARRRSYGYYFDYWGQGTTLTVSS VL 2: DIVLTQSQKFMSTSVGDRVSITCKASQNVGTAVAWYQQKPGQSPKALIYSASYRYSGVPDRFTGSGSGTDFTLTISNVQSEDLAEYFCQQYNSYPLTFGAGTKLEIKR | – | ≥ 50 s | > 50 s
5 | chimeric bispecific antibody (A69/B26/BBA) (bispecific antibody, V domains shown) VH 1: MEVQLQQSGAELVKPGASVKLSCTASGFNIKDYYMHWIKQRPGQGLEWLGYINPSSGYTKYNRKFRDKATLTADKSSSTAYMQLTSLTYEDSAVYYCARGGNGYYLDYWGQGTTLTVSS VH 2: MQVQLQQSGPELVKPGASVKISCKASGYTFTDNNMDWVKQSHGKGLEWIGDINTKSGGSIYNQKFKGKATLTIDKSSSTAYMELRSLTSEDTAVYYCARRRSYGYYFDYWGQGTTLTVSS VL: DIVMTQSHKFMSTSVGDRVSITCKASQNVGTAVAWYQQKPGQSPKLLIYSASYRYSGVPDRFTGSRYGTDFTLTISNVQSEDLADYLCQQYSNYITFGGGTKLELKR | > 80 s | ≥ 80 s | –
